Test: label from the status in PepcDB records

Sequence	protein production
MDIGFLVFGLAGLLTLVCFMPPLAGRLKLPYSVLLALVGCLLGIGVHLHGWAPPVLGDLLDTIEHFEISSETFLMVFLPVLLFETALSMNVRRLIDDIGPILMMAIVAVVVCTLVVGFAVDAVSSYGLIVCLLLGAIVATTDPAAVVGIFREVGAPKRLTTLVEGESLFNDAASIALYSVLLAALGGSGELSVGAVFNDFIFHFVGGGLAGFLMGRLACALFAWLRGFPTAEITLTLTLAYLSFFISEHYLGVSGVVATVIAGLVVGSTGRTRMSPTTFEFLSSAWGQFGFWANSLIFLFAAMLIPKLMAEADWQELLLVLVVFAATLAARAIVVFGLLPLLRVARIGAEVSNPYKSVMWWGGLRGAVSLALALAVTEQSSVPEQARQFVAVATTGFVLMTLMINGVSLRPLIRMLGLNQLSPVERTIRNQVLAAALEDLQGRTEEIAKVDHVNPEARDRIRAVFDASLTSVHDGQVGQMTLDQRVAVGLSIVARREEEMFFDILKAQIVDWRLAEGLLARAERLEDAVRAGGLAGFEAGIVADVRYSRLFRMALRTHYMFGFQGWLARELGKRFASLLTKRSVARDLMKFAREQVAPLLGEEAADRIIAAHQRRLDLIENALQALTLQYPSYSLWLQESHLGRVARELERRRYRDMLEQFLISGEVYADLMAQLKARWQHIDKHPPLDIELGSAELVKRVPLFEGLSQDSLRAICRLLKPRLALPDQHILTEGRHGQEMCIVASGAVVVHLPDHTTIELGSGEFFGELALLGEEQLVPDVTSLGYSKLLMLSARDFHALLARDEHLRERIQTVAKQRMRAIEVWKQYSQAAAAAAASTASEDSAPA	failed
MDIKELKEIATKSREKQTKIRIRCCSAAGCLSSEGETVKKNLTTAIAAAGLEEKVEVCGVGCMKFCGRGPLVAVDDRNQLYEFVTPDQVGDIVKKLQKPDAVAETGLISGDPHHPFY	failed
MDILKSEILRKRQLVEDRNLLVENKKYFKRSELAKKEEEAYFERCGYKIQPKEEDQKPLTSSNPVLELELAEEKLPMTLSRQEVIRRLRERGEPIRLFGETDYDAFQRLRKIEILTPEVNKGLRNDLKAALDKIDQQYLNEIVGGQEPGEEDTQNDLKVHEENTTIEELEALGESLGKGDDHKDMDIITKFLKFLLGVWAKELNAREDYVKRSVQGKLNSATQKQTESYLRPLFRKLRKRNLPADIKESITDIIKFMLQREYVKANDAYLQMAIGNAPWPIGVTMVGIHARTGREKIFSKHVAHVLNDETQRKYIQGLKRLMTICQKHFPTDPSKCVEYNAL	failed
MDIRTITSSDYEMVTSVLNEWWGGRQLKEKLPRLFFEHFQDTSFITSEHNSMTGFLIGFQSQSDPETAYIHFSGVHPDFRKMQIGKQLYDVFIETVKQRGCTRVKCVTSPVNKVSIAYHTKLGFDIEKGTKTVNGISVFANYDGPGQDRVLFVKNI	not failed
MDISMKQSKRNLWWSVCAGLLFCSWGCSSQVSDKPVTLETLLDEMVSVEEQALYPVPSYTCRQESSYDRASVSPDSAGWFANSDGFGIKRVDTVAGRIEKVMFDEVGPGAITRIWITTIDKRGTWRFYFDGSDQPGWIIPAYDLMRINVPGLGKGMLQAHTSYTPEGKGGNTLFLPIPYARGCKVTFEDEPGVNPTPKYYHINFRKYPEGTQVETFSKEVVERAAQKIAEVDNRLLQPVAGRKGEILREEKSILPSDSLVIPLPAGENAVYEVKFNIRIDNPEQYAQLMRELVFSAGFDGKQTVWVPLSDFSGGGMGAPKVDSWYLTSDGKGNISSRWLMPYQKDGVLKVLNLSSRSVAATMEVNVAPLKWNKDRSLYFYASWRQENGIYIHDKPEEADQCVEWNFATLKGRGVYKGDLLSLYNHAPLWYGEGDEKIWVDDDTFPSHFGTGTEDYYNSSWAPVVPFYTPFGGAPRADLESSHGYNAFYRTRHLDGIPFNKSFKFDIEMLGWKRGEADYATTIYWYGDPEAQVFGTSGIEEARRQLLPAVEASADLEHHHHHH	not failed
MDISSTEIWDAIRRNSFLLYYQPKVDAKTNELIGFEGLIRLKTATAILAPADFFEDIALLNATREMQDFVAETAIEQINQLGGRFSISINIPAHYVVSSNYMTFLYDYVKEHLKYPECLEIEIIERGEITELAVADKNLRKIKKLGVTVSMDDFGKGYSSLAYLRSLPIDIVKTDMSFIALLKTDRKQQIIIQAIVNLCHDLGGKVVTEGVEDIEQVKTLREMKVDYFQGYYFSRPLPMKEIKEKYSIV	failed
MDITNIKEMNYEEVFSITITVDKPILIGQDDIVGRRQLIPIISGKVSGNNFNGKVLPGGIDSQIVRPDGKCELSARYAIRLDDGAAIYIENNGIRTVPDEYIEAVKSGEFVDPNAYYFRTIPTFETYSPKYKWMMNHIFVCCASRLPENVLLKFYKIS	not failed
MDIVISGGTGLIGRAITEIQGNTYNVITRGPSRTDGNINLVNWNDLRKIRHCDVVINLAGYNIGSKRWNPKIKEEIIRSRIESTRRMVEFISSLDSKPEAFLSGSAIGYYGYGENTVFDENSPPGTGFLAELANAWEDEALKASRYTRTVILRTSNVLSSSGGFLARIMNSRSRRVYYFGDGDQPVSWIHIKDYVNAVKFLMENKDISGPVNMAAPSPVSFADLAHAIAREKGYKEMKIPEFIGKLILGSEMYRELMSGQRVAPKKLTGSGFSFQYPDLESAIKNLLEHHHHHH	failed
MDIVLIGGLWLNGSVWEGVASTLESLGHRPVPLTLPGQGDGAATATLDDQVAAVLAAVDAAPGRPMVVGHSAACALAWLAADRRPGRLAKVALIGGIPTPDGRPYADFFEVRDGVMPFPGWEPFQGPDAADLDEAARHELAAAAIPVPEAVARGVVRLSDERRYDVPVVVVCPEFTPAQARGWIDAGDVPELARAKHVDFADIDSGHWPMITKPAELARVLAAAAEGN	failed
MDIVSVALQRYSTKAFDPSKKLTAEEADKIKTLLQYSPSSTNSQPWHFIVASTEEGKARVAKSAAGNYTFNERKMLDASHVVVFCAKTAMDDAWLERVVDQEDADGRFATPEAKAANDKGRRFFADMHRVSLKDDHQWMAKQVYLNVGNFLLGVAAMGLDAVPIEGFDAEVLDAEFGLKEKGYTSLVVVPVGHHSVEDFNAGLPKSRLPLETTLTEV	not failed
MDKALTNHVIILSFDCLSALDFPILQKLPHFQSLIKKGTVVEKVEPIYPSVTYPSHSTIVTGNYPNKHGVVSNTLLQPGRESPDWHWYRKSIKGTTLYDEARKANLTTAALLWPVTGRANIDYNLPEIFPNRPWQNQVLVSLFSGSPLYQLDLNRRFGHIRNGLSQPELDDFVLASAVHTIQTKKPNIMFVHFTDLDTQRHYHGFESNETIAAIQRHDERLGKIIQALKESDLYEESTIIALGDHSALSENKSIQLNVLFHQRGLISLNKKRKLVDWKAYCQSCDGSAYVYVKDKNDTDTIREVQLLLEELLQNKQNGIEFILHDEAAKDCGADGNCLFMLEAREGYYFTENYTGDFIKEITEKDVTLSKKYTFGTHGYSPTKPNYETIFIAAGKGIKSGVTVPYMRLIDEGPTIARLLGLHLGETDGAIVEDLLQLLEHHHHHH	not failed
MDKESTKWIRFLGGKNLLYTLTILCLIAVTIFLFNTVSFIFKPIFVIFSAVLGPVLFGIILFYLLNPMVKRLEKKIPRVWAIAILYVLIIALLVLAGLQLFPIIQDQTEELIKQFPSFWKSTLQTVQEFMAKTPFAKDLESANESINQLWGKLANSFKDFAGDYLQTGAQGLGSVFSAVSSTFLTLFTGPIIAFFLLKDKEKFYRFVKGIIPPAFRPDFDEYSQIANIQIGDYLKGQVIASLVLGIMYWPAFLLIGLQFGSILALAAGILCIIPYIGPFIAFIPGLIIAFQDSTFMVVKFVIVWFAIQLIHGDFVIPRVMGDKLKVHPITILLVLLVMGELFGLMGVIFGIPMYCLVKVTVIYLFRKFKQRYNRFYGDNGEYEHTNFTKDQYLK	failed
MDKKYDITAVLNEDSSMTAISDQFQITLDARPKHTAKGFGPLAALLSGLAACELATANLMAPAKMITINKLLMNVTGSRSTNPTDGYFGLREINLHWEIHSPNSETEIKEFIDFVSKRCPAHNTLQGVSQLKINVNVTLVH	not failed
MDKNILAIIFVAVGTYLIRYIPIHLHSKIKNIDEKVKEINEILIYSSTSVISALFITSFIKFPIIFSNVLISTISLIFAIVSYKKWNNLGISILISVVIYYLASKFLISI	failed
MDKVSIIIPVYNVQSFLNECIESVLAQTYSNLEIILVNDGSTDNSGDICDYYSEIDGRIFVFHKNNGGLSDARNYGISRATGDYIYLLDSDDYLYKEDAIERMVEFSEKYNSEIVLGCYVEKREQHIINIVLEDEMIETISPVQAIQNIYNYDAYRAIFTVAHNKLYKRELFSTLCYPVGKLHEDEFLTYKLYLKAKNIIFFRYNTYAYRIRENSIMTGSYNIKRLHAVEALKERIYLLEKYPDLVFQSERALIKTMEVNLIELYKNNFYKEFHTLKTEYKKTIFDFIKKQRMLLKIKYYLKYCVVHFKILNCKRKKKINKLEHHHHHH	not failed
MDKYLRLLSQGDRLGLTLIRLSIAIVFIWIGLLKFVPYEADSITPFVANSPFMSFFYEHPEEYRQHLTHEGELKPEERAWQTANNTYAFSDGLGVVELIIAALVLANPVSRWLGLAGGVLAFLTPFVTLSFLITTPEVWVMPLGDAHYGFPYLSGAGRLVLKDTLMLAGAVMIMADSARSLLLQRQ	failed
MDKYRLLLLGGGRGLFDIDEDFMHWIDEFIEEHSNSIEITIVTGKNKKLYDNLTHKKPLKNIKVLGFVNDMYNLIRECDLMLTKPGGATIFEAIQSQTPVLVKMPKVGQEIENAKFIIDKGLGMIYSDDLDLKNIFYKLVSNEFDSIINFMKKNLKEFKTVIHPEKIADYISELIDNHLEHHHHHH	failed
MDLDLRKLRYFVAVADRLHFGRAADALHIAQPALSRQIRALEQDLGASLFTRDSHGVTLTDAGRQLLDDAGPLLASAHAVRRRVSVAERGGRRLVVGFRAGIPVIPATRVFEAQHPDVVVDVQRMEWDDQASMLLDGRVDVAYVRLPLAETGLRLAPLYTEPLMVALPAGHRLAGKDEVTEADLAGEPLIWHADASRQPTRRPHPDSGLRVRGVEEKLEHVAAGRGISFVGRSEAVFFSRPDISYVPVPDLAPDQVCVAMAASRTSPLADSFFAAAQTTAEITAECGNYEMWRLASDAASKRD	failed
MDLESVKKYLEGDEDEKAKEPMVAKLPHRFLERFVTNGLKVDLIEPGRIVCSMKIPPHLLNAGKFLHGGATATLVDLIGSAVIYTAGASHSGVSVEINVSYLDAAFLDEEIEIESKALRVGKAVAVVSVELRKKTTGKIIAQGRHTKYFAPRSNL	failed
MDLKEIVQAGAFDLHIHTTASDGEYSPTAIVKKAKEIGLRTIAITDHDTLDGIEEAVIAGKRHGINVIPAIELTTKYKGTNVDILGYNVKASEKLQAILVQLKKHREGRAMQIIEKFNDIGFTITLDEVKQFSEDGVIARPHIAKAIVKKGYVLDYQTVFDEYLADGKPCAIDKMILTPEEGIKLIHEAGGKAILAHPVYLEDTLVRELLALDFDGIEVWHRNHDETDQEKYKMLATEFALIKTGGSDFHTDEHSLGQFGWKADEE	failed
MDLLLFSDVHGDREACQRLVDRAADVDVVVGAGDFCVARRNLQAPIETLSAIDTPTVLVPGNAETEDELEAQIDAAGWGAAHVLHGGGTTIDGTPFFGLGGGVPVTPFGPWSYDLTEDEARTLLSDCPEGAVLVAHSPPKDAVDRDSKGQSLGSVAVREAIEAHTPRLTVCGHIHGSWEETAHVGPTPVHNAGPHGRIWTLSEADGA	failed
MDLPITLSKETPFEGEEITVSARVTNRGAAEAHNVPVAVYLGNPAQGGVEIGRDTISRIPVGGTGLARVQWKATRKLAGRAANPGVPVYAVVDPDNRVAESDKANLEHHHHHH	not failed

From a protein production outcome set (Wang et al. 2014)
